According to patent US20190177704A1, “MODIFIED LUCIFERASE” (RIKEN, priority 2016, published 2019):
Positions count from the first letter of the chain named. Numbers in names are those of the source.

B1: Luc2: luciferase derived from Photinus pyralis consisting of an amino acid sequence represented by SEQ ID NO: 1 (protein, listed as Photinus pyralis)
chain: MEDAKNIKKGPAPFYPLEDGTAGEQLHKAMKRYALVPGTIAFTDAHIEVDITYAEYFEMSVRLAEAMKRYGLNTNHRIVVCSENSLQFFMPVLGALFIGVAVAPANDIYNERELLNSMGISQPTVVFVSKKGLQKILNVQKKLPIIQKIIIMDSKTDYQGFQSMYTFVTSHLPPGFNEYDFVPESFDRDKTIALIMNSSGSTGLPKGVALPHRTACVRFSHARDPIFGNQIIPDTAILSVVPFHHGFGMFTTLGYLICGFRVVLMYRFEEELFLRSLQDYKIQSALLVPTLFSFFAKSTLIDKYDLSNLHEIASGGAPLSKEVGEAVAKRFHLPGIRQGYGLTETTSAILITPEGDDKPGAVGKVVPFFEAKVVDLDTGKTLGVNQRGELCVRGPMIMSGYVNNPEATNALIDKDGWLHSGDIAYWDEDEHFFIVDRLKSLIKYKGYQVAPAELESILLQHPNIFDAGVAGLPDDDAGELPAAVVVLEHGKTMTEKEIVDYVASQVTTAKKLRGGVVFVDEVPKGLTGKLDARKIREILIKAKKGGKIAV
B2: N229Y_S347N: luc2 variant with N229Y and S347N mutations (SEQ ID NO: 2) (protein)
chain: B1 chain with N229Y, S347N
modifications: Modified Luciferase
B3: N229Y_H310Q_S347N: luc2 variant with N229Y, H310Q and S347N mutations (SEQ ID NO: 4) (protein)
chain: B1 chain with N229Y, H310Q, S347N
modifications: Modified Luciferase
B4: N229H_S347N: luc2 variant with N229H and S347N mutations (SEQ ID NO: 3) (protein)
chain: B1 chain with N229H, S347N
modifications: Modified Luciferase
B5: Variant b: luc2 variant with the mutations of column b in Table 1 (SEQ ID NO: 5) (protein)
chain: MEDAKNIKKGPAPFYPLEDGTAGEQLHKAMKRYALVPGAIAFTDAHIQVDVTYAEYFEMSVRLAEAMRRYGLNTNHRIVVCSENSLQFFMPVLGALFIGVAVAPANDIYNERELLNSMGISQPTVVFVSKKGLRKVLDVQKKLPIIRKIIIMDSKTDYQGFQSMYTFVASHLPPSFNEYDFVPECFDRDKTIALIMNSSGSTGLPKGVALPHRTACVRFSHARDPIFGYQNIPDTAILSVVPFHHGFGMFTTLGYLICGFRVVFMYRFEEELFLRSLQDYKIQSALLVPTLFSCLAKSTLIDKYDLSSLREIASGGAPLSKEVGEAVAKRFRLPGIRQGYGLTETTNAVMITPEGDRKPGSVGKVVPFFEAKVVDLVTGKTLGVNQRGELCVRGPMIMSGYVNNPEATNALIDKDGWLHSGDIAYWDEDEHFFIVDRLKSLIKYKGYQVAPAELEGILLQHPYIFDAGVAGLPDDDAGELPAAVVVLEHGKTMTEKEIVDYVASQVTTAKKLRGGVVFVDEVPRGPTGKLDARKIREILTKAKKDGKIAV
modifications: Modified Luciferase
B6: Variant d: luc2 variant with the mutations of column d in Table 1 (SEQ ID NO: 7) (protein)
chain: B5 chain with L86S, D138N, A169T, F264L, T290A, L291P
modifications: Modified Luciferase
B7: Variant c: luc2 variant with the mutations of column c in Table 1 (SEQ ID NO: 6) (protein)
chain: B5 chain with L86S, D138N, A169T, C185S, F264L, P526S
modifications: Modified Luciferase

Tests used:
Type in all cases: cell-based
[1] = Emission intensity of luciferase-expressing HeLa S3 cells with AkaLumine-OH; conditions: emission intensity of D-luciferin defined as 1
Method: (§1) A plasmid pcDNA3 was treated with use of BamHI and EcoRI, and genes encoding the respective luciferases above were each inserted into the plasmid pcDNA3 to produce plasmids for transfection.
(§2) HeLa S3 cells were used as mammalian cells to be transfected. For each of the luciferases above, HeLa S3 cells which had been cultured in D-MEM (low glucose, containing 10% FBS and 1% penicillin streptomycin, Wako Pure Chemical Industries, Ltd.) and were in an 80% confluent state were mixed with a transfection reagent (Polyethylenimine, Linear (MW 25,000, Polysciences, Inc)) and the plasmid for transfection (0.3 μg) to conduct transfection.
(§3) 24 hours after the transfection, the cells were dissociated through trypsinization, and were suspended in DMEM/F12 (10% FBS, gibco). Subsequently, centrifugation was conducted to remove the supernatant, and then the cells were resuspended in 1 mL DMEM/F12 so as to be used as luciferase-expressing cells.
(§4) In 1.5 mL Eppendorf tube, 20 μL of the produced luciferase-expressing cells and 80 μL of a substrate solution (prepared with pH 7.4 PBS) were mixed, and light emission from the obtained mixture was measured for one minute (with use of a luminometer AB-2280 manufactured by ATTO Corporation). An integrated value of the values thus measured within one minute was defined as the emission intensity.
(§5) Subsequently, with use of D-luciferin, AkaLumine, AkaLumine-OH, 6-AkaLumine, 0-AkaLumine, monoene NMe2, monoene NH2, monoene OH, and biphenyl as substrates, specificity to each of these substrates was evaluated. The substrates are respectively represented by the following chemical formulae. Each substrate solution contains a single kind of substrate.
(§6) Tables 3 through 8 show results of relative emission intensities in a case where the emission intensity of D-luciferin is defined as 1.

[2] = Emission intensity of luciferase-expressing HeLa S3 cells with monoene OH; conditions: emission intensity of D-luciferin defined as 1
Method: as §1, §2, §3, §4, §5, §6

[3] = Emission intensity of luciferase-expressing HeLa S3 cells with 0-AkaLumine; conditions: emission intensity of D-luciferin defined as 1
Method: as §1, §2, §3, §4, §5, §6

[4] = Emission intensity of luciferase-expressing HeLa S3 cells with monoene NH2; conditions: emission intensity of D-luciferin defined as 1
Method: as §1, §2, §3, §4, §5, §6

[5] = Emission intensity of luciferase-expressing HeLa S3 cells with AkaLumine; conditions: for relative emission intensity, AKA: emission intensity of D-luciferin defined as 1; for relative emission intensity, AKA / AkaLumine emission intensity, relative value: HeLa S3 cells; for AkaLumine/D-luciferin: ratio of relative emission intensities, Table 2; for AkaLumine emission intensity, relative value: relative to 1.0 = emission intensity of luc2 with AkaLumine, 80 μM substrate, integrated over one minute
Method: as §1, §2, §3, §4
(§7) As the substrate solution, AkaLumine or D-luciferin (80 μM each) was added. Results of the measurement of emission intensity are shown below in Table 2 as relative values with respect to 1.0 which is an emission intensity obtained in a case where AkaLumine was added to a sample of luc2.
as §5, §6

[6] = Emission intensity of luciferase-expressing HeLa S3 cells with 6-AkaLumine; conditions: emission intensity of D-luciferin defined as 1
Method: as §1, §2, §3, §4, §5, §6

[7] = Emission intensity of luciferase-expressing HeLa S3 cells with monoene NMe2; conditions: emission intensity of D-luciferin defined as 1
Method: as §1, §2, §3, §4, §5, §6

[8] = Emission intensity of luciferase-expressing HeLa S3 cells with D-luciferin; conditions: for relative emission intensity, Dluc: emission intensity of D-luciferin defined as 1; for D-luciferin emission intensity, relative value: relative to 1.0 = emission intensity of luc2 with AkaLumine, 80 μM substrate, integrated over one minute
Method: as §1, §2, §3, §4, §7, §5, §6

[9] = Emission intensity of luciferase-expressing HeLa S3 cells with biphenyl; conditions: emission intensity of D-luciferin defined as 1
Method: as §1, §2, §3, §4, §5, §6

Molecule | relative emission intensity, AKA-OH [1] | relative emission intensity, monoOH [2] | relative emission intensity, O-AKA [3] | relative emission intensity, monoNH2 [4] | relative emission intensity, AKA [5] | AkaLumine/D-luciferin [5] | AkaLumine emission intensity, relative value [5] | relative emission intensity, 6-AKA [6] | relative emission intensity, monoNMe2 [7] | relative emission intensity, Dluc [8] | D-luciferin emission intensity, relative value [8] | relative emission intensity, biph [9]
B1 | not detected | 1.8 × 10^−3 | 8.4 × 10^−3 | 3.0 × 10^−3 | 2.6 × 10^−1 | 1.8 | 1.0 | 1.6 × 10^−1 | 1.1 × 10^−1 | 1.0 | 5.5 × 10^−1 | 1.4 × 10^−2
B2 | 2.1 | 1.4 × 10^−2 |  | 1.7 | 6.4 × 10^3 |  |  | 9.6 × 10^2 | 2.4 × 10^2 | 1.0 |  | 6.9
B3 | 1.4 | 1.3 × 10^−1 | 2.1 × 10^−3 | 7.3 × 10^−1 | 4.1 × 10^3 |  |  | 1.1 × 10^3 |  | 1.0 |  | 
B4 | 0.9 | not detected | 6.3 | 4.3 × 10^−1 | 1.7 × 10^3 |  |  | 8.5 × 10^2 |  | 1.0 |  | 4.9
B5 | 0.9 | 1.5 × 10^−2 |  | 1.2 × 10^−1 | 2.4 × 10^3 |  | 2.4 | 8.1 × 10^2 |  | 1.0 | not detected | 3.1
B6 | 9.8 × 10^−1 | 7.1 × 10^−2 |  | 1.3 × 10^−1 | 3.4 × 10^3 | 3.4 × 10^3 | 6.1 | 1.5 × 10^3 | 6.6 | 1.0 | 1.8 × 10^−3 | 7.5
B7 | 1.8 | 1.1 × 10^−1 |  | 1.8 × 10^−1 | 9.0 × 10^3 |  | 6.8 | 1.8 × 10^3 |  | 1.0 | not detected | 4.1
